# Test results reported in the Immune Epitope Database (IEDB).
# pKd: −log10 of the molar value.
# Experiments:
# [1] = target: HLA-B*51:01; assay: IEDB peptide-MHC binding, purified MHC/competitive/radioactivity; filed as Kd, often an IC50 or EC50 that approximates it; ≥ and ≤ were set here for values at or beyond the usual limits of such assays
# [2] = target: HLA-B*35:01; assay: as above
# [3] = target: HLA-B*08:01; assay: as above
# [4] = target: HLA-A*32:01; assay: as above
# [5] = target: HLA-B*40:01; assay: as above
# [6] = target: HLA-B*44:03; assay: as above
# [7] = target: HLA-B*44:02; assay: as above
# [8] = target: HLA-B*07:02; assay: as above
# [9] = target: HLA-B*53:01; assay: as above; conditions: source organism: Dengue virus 2 Jamaica/1409/1983
# [10] = target: HLA-A*26:01; assay: IEDB peptide-MHC binding, purified MHC/competitive/fluorescence; filed as Kd, often an IC50 or EC50 that approximates it; ≥ and ≤ were set here for values at or beyond the usual limits of such assays
# [11] = target: HLA-A*30:02; assay: IEDB peptide-MHC binding, purified MHC/competitive/radioactivity; filed as Kd, often an IC50 or EC50 that approximates it; ≥ and ≤ were set here for values at or beyond the usual limits of such assays
# [12] = target: HLA-A*29:02; assay: as above
# [13] = target: HLA-A*30:01; assay: as above
# [14] = target: HLA-A*01:01; assay: as above
# [15] = target: HLA-A*26:01; assay: as above
# [16] = target: HLA-A*02:02; assay: as above; conditions: source organism: Vaccinia virus WR
# [17] = target: HLA-A*02:06; assay: as above
# [18] = target: HLA-A*02:03; assay: as above; conditions: source organism: Vaccinia virus WR
# [19] = target: HLA-A*03:01; assay: IEDB peptide-MHC binding, purified MHC/direct/fluorescence; filed as Kd, often an IC50 or EC50 that approximates it; ≥ and ≤ were set here for values at or beyond the usual limits of such assays; conditions: source organism: Coxiella burnetii
# [20] = target: HLA-B*40:01; assay: as above; conditions: source organism: Coxiella burnetii
# [21] = target: HLA-B*07:02; assay: as above; conditions: source organism: Coxiella burnetii
# [22] = target: HLA-B*58:01; assay: as above; conditions: source organism: Coxiella burnetii
# [23] = target: HLA-A*69:01; assay: as above; conditions: source organism: Coxiella burnetii
# [24] = target: HLA-A*31:01; assay: as above; conditions: source organism: Coxiella burnetii
# [25] = target: HLA-A*11:01; assay: as above; conditions: source organism: Coxiella burnetii
# [26] = target: HLA-B*15:01; assay: as above; conditions: source organism: Coxiella burnetii
# [27] = target: HLA-B*08:01; assay: as above; conditions: source organism: Coxiella burnetii
# [28] = target: HLA-A*01:01; assay: as above; conditions: source organism: Coxiella burnetii
# [29] = target: HLA-B*44:02; assay: as above; conditions: source organism: Coxiella burnetii
# [30] = target: HLA-A*26:01; assay: as above; conditions: source organism: Coxiella burnetii
# [31] = target: HLA-A*02:01; assay: as above; conditions: source organism: Coxiella burnetii
# [32] = target: HLA-B*27:05; assay: as above; conditions: source organism: Coxiella burnetii
# [33] = target: HLA-B*18:01; assay: as above; conditions: source organism: Bacillus cereus H3081.97
# [34] = source organism: Dengue virus 2 Jamaica/1409/1983
# [35] = source organism: Vaccinia virus WR
# [36] = source organism: Dengue virus 1 Brazil/97-11/1997
# [37] = source organism: Dengue virus 3 Martinique/1243/1999
# [38] = source organism: Escherichia coli
# [39] = source organism: Lymphocytic choriomeningitis virus (strain WE)
# [40] = source organism: Dengue virus 4 Philippines/H241/1956
# [41] = source organism: Dengue virus 2 Peru/IQT2913/1996
# [42] = source organism: Mammarenavirus guanaritoense
# [43] = source organism: Mammarenavirus brazilense
sequence,measurement,setting,value
LPVWLAYRVA,pKd,[1]; [34],5.30
same,pKd,[2]; [34],6.51
YRPLHFQYV,pKd,[3]; [35],6.61
LLLVTHYAI,pKd,[4]; source organism: Dengue virus 3 Singapore/8120/1995,7.38
TAIANQAAIL,pKd,[3]; [36],6.37
AETQNSSFI,pKd,[5]; [37],6.85
same,pKd,[6]; [37],6.91
same,pKd,[7]; [37],8.57
HPGFTIMAAI,pKd,[8]; [34],7.53
same,pKd,[1]; [34],5.24
same,pKd,[9],7.18
DVLRQYVLM,pKd,[10]; [38],5.67
GFMRFFQLL,pKd,[3]; [35],8.62
MTKEASREY,pKd,[11]; [39],7.17
same,pKd,[12]; [39],6.21
same,pKd,[13]; [39],6.97
same,pKd,[4]; [39],≤ 4.25
same,pKd,[14]; [39],5.52
same,pKd,[15]; [39],7.75
NNRYRFAFL,pKd,[3]; [35],7.51
RLNQPVNNI,pKd,[4]; [35],7.60
MEAQLIRQM,pKd,[5]; [34],6.10
same,pKd,[6]; [34],6.92
same,pKd,[7]; [34],7.95
EEIAVQNWL,pKd,[5]; [34],7.83
same,pKd,[6]; [34],7.97
same,pKd,[7]; [34],8.16
FIRSTMPLVM,pKd,[2]; [40],5.53
ELILDRGYY,pKd,[10]; source organism: Bacillus cereus G9241,6.68
GESSPNPTV,pKd,[5]; [41],7.81
same,pKd,[7]; [41],6.49
IVYGRSNAI,pKd,[4]; [35],8.50
same,pKd,[16],7.83
same,pKd,[17]; [35],7.52
same,pKd,[18],7.80
NDMISYGGGW,pKd,[6]; [40],7.15
same,pKd,[7]; [40],8.21
DEDCAHWKEA,pKd,[4]; [34],≤ 4.16
ILRKIFYSV,pKd,[3]; [35],9.99
NNRVLFNNF,pKd,[3]; [35],6.11
RSTSLSVSL,pKd,[4]; [34],7.00
MPIRYQTTAV,pKd,[8]; [36],7.95
same,pKd,[1]; [36],6.46
same,pKd,[2]; [36],7.32
DTAKAFAYL,pKd,[10]; [38],6.73
VATTFVTPM,pKd,[2]; [34],6.69
AEISGSSPI,pKd,[5]; [34],9.18
same,pKd,[6]; [34],7.59
same,pKd,[7]; [34],7.84
FTLTVAWRTA,pKd,[4]; [37],5.03
same,pKd,[17]; [37],6.42
SGMRRQEQI,pKd,[3]; [35],7.78
FRRLTSREVL,pKd,[3]; [36],6.98
WMVHRQWFFD,pKd,[4]; [37],5.30
GEGLHKLGY,pKd,[6]; [34],6.55
same,pKd,[7]; [34],6.92
STVGASGVY,pKd,[10]; source organism: Orthohantavirus sinnombreense,≥ 9.00
KTKRILPSI,pKd,[13]; [40],8.17
same,pKd,[4]; [40],6.90
TLKRRSWPLN,pKd,[13]; [37],5.26
same,pKd,[4]; [37],4.72
EAAGIAACL,pKd,[10]; source organism: Escherichia coli F11,7.84
KPTLDFELI,pKd,[1]; [34],≤ 4.51
same,pKd,[9],6.55
WIEDNPWMED,pKd,[4]; [37],5.38
LSNGASLTI,pKd,[4]; [35],7.13
TRKVRSNAA,pKd,[3]; [34],8.20
IGVIITWIGM,pKd,[4]; [34],≤ 4.23
MLKRARNRV,pKd,[3]; [36],7.60
ESALNISGY,pKd,[11]; [42],6.13
same,pKd,[12]; [42],≤ 4.45
same,pKd,[13]; [42],≤ 4.17
same,pKd,[4]; [42],≤ 4.11
same,pKd,[14]; [42],7.43
same,pKd,[15]; [42],6.93
LINLTTIAY,pKd,[11]; [43],5.84
same,pKd,[12]; [43],6.46
same,pKd,[13]; [43],5.03
same,pKd,[4]; [43],5.05
same,pKd,[14]; [43],6.24
same,pKd,[15]; [43],4.91
GTFHTMWHVT,pKd,[4]; [34],4.87
AAGRKSLTL,pKd,[3]; [34],6.68
NEMILMKMK,pKd,[6]; [40],5.54
same,pKd,[7]; [40],6.40
AEMEEALKGL,pKd,[5]; [37],7.81
same,pKd,[6]; [37],7.25
same,pKd,[7]; [37],7.59
NLAERFCTE,pKd,[3]; [35],5.72
IIWKGIYTY,pKd,[4]; [35],8.48
EEMPLVWDL,pKd,[19],≤ 4.70
same,pKd,[20],7.72
same,pKd,[21],≤ 4.70
same,pKd,[22],≤ 4.70
same,pKd,[23],≤ 4.70
same,pKd,[24],≤ 4.70
same,pKd,[25],≤ 4.70
same,pKd,[26],≤ 4.70
same,pKd,[27],≤ 4.70
same,pKd,[28],≤ 4.70
same,pKd,[29],5.03
same,pKd,[30],≤ 4.70
same,pKd,[31],≤ 4.70
same,pKd,[32],≤ 4.70
WMIRILIGFL,pKd,[3]; source organism: Dengue virus 4 Dominica/814669/1981,6.77
KEISNMLSII,pKd,[5]; [37],7.28
same,pKd,[6]; [37],6.57
same,pKd,[7]; [37],7.53
LLQMEDKAWL,pKd,[3]; [34],5.70
CINVRRCAL,pKd,[3]; [35],8.16
LINERDYSRY,pKd,[11]; [43],6.20
same,pKd,[12]; [43],4.78
same,pKd,[13]; [43],≤ 4.15
same,pKd,[4]; [43],≤ 4.16
same,pKd,[14]; [43],5.99
same,pKd,[15]; [43],5.71
FPVQFFIVF,pKd,[33],≤ 4.70
